Source: patent publication US7282483 (Amgen, dated 2007)

Molecular target: T1, TNF-β (lymphotoxin) (UniProt P01374 35-205, limits assumed)
T1 sequence (looked up): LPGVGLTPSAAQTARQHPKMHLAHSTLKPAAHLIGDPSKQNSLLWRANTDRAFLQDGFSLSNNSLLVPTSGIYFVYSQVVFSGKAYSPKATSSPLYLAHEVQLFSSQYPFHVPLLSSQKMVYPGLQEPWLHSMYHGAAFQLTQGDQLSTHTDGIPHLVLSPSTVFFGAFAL
Experiment: preliminary tests, analogous to the competition binding test

B1: TNF-binding protein (TNF-BP), natural, purified from dialyzed urine of uraemia patients (receptor)
chain: DSVCPQGKYIHPQNNSICCTKCHKGTYLYNDCPGPGQDTDCRECESGSFTASENHLRHCLSCSKCRKEMGQVEISSCTVDRDTVCGCRKNQYRHYWSENLFQCFNCSLCLNGTVHLSCQEKQNTVCTCHAGFFLRENECVSCSNCKKSLECTKLCLPQIEN
modifications: glycoprotein; Asn-25 glycosylated (numbering of the TNF-BP cDNA sequence, Leu-1 = first residue after the signal peptide)
notes: Main form (about 80 %) starts at Asp-12; In the preliminary tests it was used as concentrated dialyzed urine or partly purified preparations
affinity for TNF-β relative to its affinity for TNF-α: ~0.02 ratio (affinity for TNF-β / affinity for TNF-α)
